Assay results taken from US20250297002A1 (SHANGHAI SINOBAY BIOTECHNOLOGY, published 2025).

B1: Hu004-68-αCD3-BITE (bispecific antibody)
chain: EVQLVESGGGLVQPGGSLRLSCAASGFTFSGYGMSWVRQAPGKGLEWVATITSGGTYTYYPDSVKGRFTISRDNAKNSLYLQMNSLRAEDTAVYYCARSLAGNAMDYWGQGTLVTVSSGGGGSGGGGSGGGGSQVQLVQSGAEVKKPGASVKVSCKASGYTFTRYTMHWVRQAPGQGLEWMGYINPSRGYTNYNQKFKDRVTITADKSTSTAYMELSSLRSEDTAVYYCARYYDDHYCLDYWGQGTTVTVSSGGGGSGGGGSGGGGSEIVLTQSPATLSLSPGERATLSCSASSSVSYMNWYQQKPGKAPKRLIYDTSKLASGVPSRFSGSGSGTDFTLTINSLEAEDAATYYCQQWSSNPFTFGQGTKVEIKGGGGSGGGGSGGGGSEIVLTQSPVTLSVSPGERATLSCRASQGVTSNLAWYQQKPGQAPRLLIYGASTRATGVPARFSGSGSGTEFTLTISSLQSEDFAVYYCQHRGTFGQGTKVDIK
B2: Hu004-101-αCD3-BITE (bispecific antibody)
chain: EVQLVESGGGLVQPGGSLRLSCAASGFTFSGYGMSWVRQAPGKGLEWVATITSGGTYTYYPDSVKGRFTISRDNAKNSLYLQMNSLRAEDTAVYYCARSLAGNAMDYWGQGTLVTVSSGGGGSGGGGSGGGGSQVQLVQSGAEVKKPGASVKVSCKASGYTFTRYTMHWVRQAPGQGLEWMGYINPSRGYTNYNQKFKDRVTITADKSTSTAYMELSSLRSEDTAVYYCARYYDDHYCLDYWGQGTTVTVSSGGGGSGGGGSGGGGSEIVLTQSPATLSLSPGERATLSCSASSSVSYMNWYQQKPGKAPKRLIYDTSKLASGVPSRFSGSGSGTDFTLTINSLEAEDAATYYCQQWSSNPFTFGQGTKVEIKGGGGSGGGGSGGGGSDIQMTQSPSTLSASVGDRVTITCRASQSISNWLAWYQQKPGEAPKLLIYKASNLESGVPSRFSGSGSGTEFTLTISSLQPDDFATYYCQQFGTFGQGTKVEIK

Target: human CD47 (human, UniProt Q08722 19-323)
Assay: cell-based or functional assay

| Binder | tumor killing activity on SK-OV3 cells with T cells (luciferase), compared with clone No. 100 [fold] | tumor killing activity on SK-OV3 cells with T cells (luciferase), compared with the T cell control group [fold] | tumor killing activity on SK-OV3 cells with T cells (luciferase), compared with the positive control antibody (B6H12-αCD3-BITE) [fold] | tumor killing activity on NCI-H292 cells with T cells (luciferase), compared with clone No. 100 [fold] | tumor killing activity on NCI-H292 cells with T cells (luciferase), compared with the T cell control group [fold] | tumor killing activity on NCI-H292 cells with T cells (luciferase), compared with the positive control antibody (B6H12-αCD3-BITE) [fold] |
| --- | --- | --- | --- | --- | --- | --- |
| B1 | 2 | 3.5 | 1.5 |  |  |  |
| B2 |  |  |  | 1.2 | 4 | 1.2 |
